Results: patent US7919577B2, “Adrenocorticotropic hormone analogs and related methods” (Colorado Seminary, priority 2004, dated 2011)
No end group written: not given here.

Biological target: T1, adrenal ACTH receptors such as MC-2R (explanted adrenal membrane) (Mus musculus, UniProt Q64326+Q9D159)
T1 construct: the adrenal halves were macerated or otherwise dissociated using Dounce Homogenizer to form a membrane fraction; from tissue; host or cells: mouse adrenal glands (explanted, homogenised to a membrane fraction)
T1 sequence (Q64326 whole entry): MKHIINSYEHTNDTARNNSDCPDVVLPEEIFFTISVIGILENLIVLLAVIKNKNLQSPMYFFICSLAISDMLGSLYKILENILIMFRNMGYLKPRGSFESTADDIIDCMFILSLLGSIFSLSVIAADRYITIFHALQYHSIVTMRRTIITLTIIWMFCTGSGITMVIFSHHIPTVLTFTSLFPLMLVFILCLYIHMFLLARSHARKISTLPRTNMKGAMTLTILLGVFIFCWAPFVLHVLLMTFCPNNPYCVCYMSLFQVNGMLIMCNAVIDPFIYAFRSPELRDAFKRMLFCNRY
T1 sequence (Q9D159 whole entry): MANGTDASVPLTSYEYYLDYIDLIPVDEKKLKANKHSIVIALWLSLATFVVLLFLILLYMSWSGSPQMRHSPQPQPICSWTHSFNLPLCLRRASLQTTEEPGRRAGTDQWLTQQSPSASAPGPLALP
Assay: in vitro Serum-free Adrenal Competitive Binding Assay (Example 3)
Details: cold peptide at 10 nM, 100 nM, 1000 nM; CPM; FIG. 3
From the text: ACTH analog compounds that bind to adrenal membrane with a greater affinity than endogenous unmodified ACTH, and are able to displace unmodified ACTH can be identified using an in vitro Serum-free Adrenal Competitive Binding Assay (Example 3). […] A higher CPM level indicates the presence of greater amounts of the radiolabelled compound. […] Column 220 indicates the level of radio-labeled unmodified mACTH(1-24) detected after combining the explanted adrenal membrane with only the radio-labeled mACTH(1-24) for 2 hours (no competitive binding). Columns 230, 240, and 250 show the results of competitive binding assays for binding of non-radio-labeled (“cold”) mACTH(1-24) to displace the radio-labeled mACTH(1-24) from the explanted adrenal membrane (measured in column 220) by competitive binding to receptors such as MC-2R on the adrenal membrane. […]
ACTH analogs with the ability to bind adrenal receptors with a greater affinity than compounds with known adrenal binding activity (preferably ACTH) can also be identified by performing an in vitro Adrenal Competitive Binding Assay, whereby measurement of the reduction in the amount of the radiolabelled adrenal-binding compound (e.g., ACTH) is measured at various concentrations of non-radio-labeled ACTH analog test compound in a medium containing explanted adrenal membrane. […]

## N-Ser^1-Tyr-Ser-Met-Glu^5-His-Phe-Arg-Trp-Gly^10-Lys-Pro-Val-Gly-Lys^15-Arg-Ala-Ala-Trp-Val^20-Lys-Val-Tyr-Pro-Ac (SYSMEHFRWGKPVGKRAAWVKVYP; not fully specified; printed as N-Ser1-Tyr-Ser-Met-Glu5-His-Phe-Arg-Trp-Gly10-Lys-Pro-Val-Gly-Lys15-Arg-Ala-Ala-Trp-Val20-Lys-Val-Tyr-Pro-Ac) [AT814]
  displacement of radio-labeled mACTH(1-24) from explanted adrenal membrane: displacement of the radio-labeled mACTH(1-24)
